US20190233522A1, “NEW DOSAGE REGIMENS FOR ANTIBODY DRUG CONJUGATES BASED ON ANTI-AXL ANTIBODIES” (GENMAB A/S, priority 2016, published 2019)

Experiments:
A431 tumors = test: A431 xenograft model (high Gas6); assay type: in vivo; details: 3 mg/kg i.p., SCID mice
Method: (§1) Tumor induction was performed by subcutaneous injection of 5×10^6 A431 or LCLC-103H tumor cells (both obtained from Leibniz-Institut—Deutsche Sammlung von Mikroorganismen and Zellkulturen GmbH (DSMZ)) in 200 μL PBS in the right flank of female SCID mice. Treatment was started 14-21 days after tumor cell inoculation, when the average tumor size was >100-200 mm^3 and distinct tumor growth was observed. Mice received a single injection or a total of 4 biweekly intraperitoneal injections with IgG1-AXL-vcMMAE ADCs or control antibody (unconjugated IgG1-b12), as indicated. Tumor volume was determined at least two times per week. Tumor volumes (mm^3) were calculated from caliper (PLEXX) measurements as: 0.52×(length)×(width)^2.

[1] = Pre-clinical PK studies in cynomolgus monkey; assay type: in vivo
Source text: Data from 5 in-vivo pre-clinical studies, shown in the Table below, were provided, containing measurements of the plasma ADC level, plasma IgG level, and plasma MMAE level (only measured in study 5).
All studies appeared to show a significant drop in plasma concentrations of ADC/IgG after the 2nd dose when compared to the first dose, which corresponded with an ADA response. As this is a fully human antibody, ADA response are only very rarely expected to occur in humans. Therefore, only data after the first dose were included in the data preparation and subsequently modelled.

LCLC-103H tumors = test: LCLC-103H xenograft model (low Gas6, Example 5); assay type: in vivo; details: 3 mg/kg i.p., SCID mice
Method: as §1

AXL = AXL (Homo sapiens, UniProt P30530); test: Competition with Gas6 for binding to AXL
PAXF1657 tumors = test: PAXF1657 pancreas cancer PDX model; assay type: in vivo, NMRI nu/nu mice
Method: Human pancreas tumor tissue was subcutaneously implanted in the left flank of 5-7 weeks old female NMRI nu/nu mice. […] At day of randomization (day 0), the 3 ADCs were dosed intravenously (i.v.) at either 4 mg/kg or 2 mg/kg, and the control group received a single dose of IgG1-b12 (4 mg/kg). Tumor volumes (mm^3) were monitored twice weekly and were calculated from caliper (PLEXX) measurements as: 0.52×(length)×(width)^2.

MDA-MB231 cells = test: Cytotoxicity assay (CellTiter-Glo) in MDA-MB231 cells; assay type: cell-based; details: MDA-MB231 (n = 2), 5 days incubation
Method: (§2) LCLC-103H cells (human large cell lung cancer) and A431 cells (DMSZ, Braunschweig, Germany) were cultured in RPMI 1640 with L-Glutamine (Cambrex; cat.no. BE12-115F) supplemented with 10% (vol/vol) heat inactivated Cosmic Calf Serum (Perbio; cat.no. SH30087.03), 2 mM L-glutamine (Cambrex; cat.no. US17-905C), 50 IU/mL penicillin, and 50 µg/mL streptomycin (Cambrex; cat.no. DE17-603E). MDA-MB231 cells were cultured in DMEM with high glucose and HEPES (Lonza #BE12-709F), Donor Bovine Serum with Iron (Life Technologies #10371-029), 2 mM L-glutamine (Lonza #BE17 -605E), 1 mM Sodium Pyruvate (Lonza #BE13-115E), and MEM Non-Essential Amino Acids Solution (Life Technologies #11140). The cell lines were maintained at 37° C. in a 5% (vol/vol) CO2 humidified incubator. LCLC-103H, A431 and MDA-MB231 cells were cultured to near confluency, after which cells were trypsinized, resuspended in culture medium and passed through a cell strainer (BD Falcon, cat.no. 352340) to obtain a single cell suspension. […]
(§3) Subsequently, 180 μL per well was transferred to white 96-well Optiplate™ plates (PerkinElmer, Waltham, Mass.; cat.no. 6005299), which were incubated for 30 min at room temperature. Finally, luminescence was measured on an EnVision multiplate reader (Envision, Perkin Elmer).

[2] = tested on: LCLC-103H xenograft tumors; test: Therapeutic treatment of SC LCLC-103H tumor xenografts (Example 3); assay type: in vivo, SCID mice
Method: The in vivo efficacy of MMAE-conjugated anti-AXL antibodies was determined in established subcutaneous (SC) LCLC-103H xenograft tumors in SCID mice. 5×10^6 LCLC-103H (large cell lung carcinoma) tumor cells (obtained from Leibniz-Institut DSMZ-Deutsche Sammlung von Mikroorganismen and Zellkulturen GmbH (DSMZ)) in 200 μL PBS were injected subcutaneously in the right flank of female SCID mice. Starting 14-21 days after tumor cell inoculation, when the average tumor size was >100-200 mm^3 and distinct tumor growth was observed, a single injection with 1 mg/kg (20 μg/mouse) IgG1-AXL-vcMMAE antibodies or control (unconjugated IgG1-b12) was given intraperitoneally (100 μL/mouse). Tumor volume was determined at least two times per week. Tumor volumes (mm^3) were calculated from caliper (PLEXX) measurements as: 0.52×(length)×(width)^2.

LCLC-103H cells = test: Cytotoxicity assay (CellTiter-Glo) in LCLC-103H cells; assay type: cell-based, human; details: 5 days incubation
Method: as §2, §3

A431 cells = test: Cytotoxicity assay (CellTiter-Glo) in A431 cells; assay type: cell-based; details: A431 (n = 3), 5 days incubation
Method: as §2, §3

B1: IgG1-AXL-148-vcMMAE: anti-AXL antibody 148 (VH SEQ ID No 5, VL SEQ ID No 6), Ig2 binder, conjugated to vcMMAE (conjugate)
VH: EVQLLESGGGLVQPGGSLRLSCAASGFTFSSYAMTWVRQAPGKGLEWVSAISISGGSTFYADSVKGRFTISRDNSKNTLYLQMNSLRAEDTAVYYCRGYSGYVYDAFDFWGQGTMVTVSS
VL: DIQMTQSPSSLSASVGDRVTITCRASQGISNWLAWYQQKPEKAPKSLIYAASSLQSGVPSRFSGSGSGTDFTLTISSLQPEDFATYYCQQYNSYPLTFGGGTKVEIK
modifications: vc-MMAE conjugate; homo sapiens
anti-tumor activity on A431 tumors (A431 tumors): induced growth inhibition | pharmacokinetic properties, unconjugated antibody (study 3) versus ADC (study 2) [1]: similar | anti-tumor activity in the LCLC-103H xenograft model (LCLC-103H tumors): induced tumor regression | competition with Gas6 for binding to AXL (AXL): lack of competition | growth of PAXF1657 tumors compared to the control group (PAXF1657 tumors; 2 mg/kg i.v., day 0): significantly reduced the growth | anti-tumor activity on PAXF1657 tumors (PAXF1657 tumors; 4 mg/kg i.v., day 0): induced tumor regression | average tumor size versus isotype control IgG1-b12 (PAXF1657 tumors; day 14, 2 mg/kg or 4 mg/kg, p<0.001 Tukey's multiple comparison test): significantly smaller | anti-tumor activity in the PAXF1657 model (PAXF1657 tumors; dose not given): induced dose-dependent antitumor activity | EC50 Mean (MDA-MB231 cells): 0.012 µg/mL | complete tumor reduction ([2]; 1 mg/kg single i.p.): in some mice within these groups to complete tumor reduction | tumor volume versus control IgG1-b12 ([2]; day 30, One Way ANOVA (Dunnett's), 1 mg/kg single i.p.): highly significant difference | anti-tumor activity in established SC LCLC-103H tumors ([2]; single i.p. injection 1 mg/kg, SCID mice): induced tumor regression | EC50 (LCLC-103H cells): 0.012 µg/mL | EC50 Mean (A431 cells): 0.070 µg/mL
